According to article PMC10457294:
Values joined by “and” are separate entries in the source; they are usually repeats but may differ in a detail not shown here. Equal entries are not always repeated.

Tests used:
[1] = target: MPXV M2 (monkeypox virus M2 protein), His-tagged, wild type (monkeypox virus (Clade I)) (UniProt Q8V554); test: SEC-MALS
[2] = target: MPXV M2 (monkeypox virus M2 protein), His-tagged, wild type (monkeypox virus (Clade I)) (UniProt Q8V554); test: cryo-EM structure
[3] = target: human B7.2 ectodomain, His-tagged (human) (UniProt P42081); test: cryo-EM structure
Chain of human B7.2 ectodomain, His-tagged (human) (P42081 26-238): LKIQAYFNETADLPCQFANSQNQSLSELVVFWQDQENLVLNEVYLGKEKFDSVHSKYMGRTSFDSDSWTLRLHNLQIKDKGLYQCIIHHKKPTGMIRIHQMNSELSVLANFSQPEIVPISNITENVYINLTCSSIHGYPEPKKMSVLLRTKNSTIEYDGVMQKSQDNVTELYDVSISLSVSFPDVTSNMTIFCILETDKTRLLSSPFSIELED

[4] = target: human B7.1 ectodomain, His-tagged (human) (UniProt P33681); test: cryo-EM structure
Chain of human B7.1 ectodomain, His-tagged (human) (P33681 35-234): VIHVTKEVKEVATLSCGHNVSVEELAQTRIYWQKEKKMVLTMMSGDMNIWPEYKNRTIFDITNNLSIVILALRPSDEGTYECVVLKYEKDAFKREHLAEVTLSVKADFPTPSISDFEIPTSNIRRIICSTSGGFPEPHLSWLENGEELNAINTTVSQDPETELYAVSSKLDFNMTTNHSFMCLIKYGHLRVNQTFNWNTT

[5] = target: human B7.1 ectodomain fused to human Fc (human) (UniProt P33681); test: BLI; […] (10 ug/mL) […]; 10 mM HEPES pH 7.4, 150 mM NaCl, 3 mM EDTA, 0.05% Tween, 1% BSA; 25 °C; 1:1 model; […]
Chain of human B7.1 ectodomain fused to human Fc (human) (P33681 35-234): as above

[6] = target: human B7.2 ectodomain fused to human Fc (human) (UniProt P42081); test: as above
Chain of human B7.2 ectodomain fused to human Fc (human) (P42081 26-238): as the sequence (P42081 26-238) above

MPXV M2 (monkeypox virus M2 protein), His-tagged, wild type (from UniProt Q8V554 18-220) (natural protein)
stoichiometry N [1]: 6.12
stoichiometry N [2]: 6 and 7
stoichiometry N [3]: 1
stoichiometry N [4]: 1
t1/2 (dissociation half-life time) [5]: 6.62 h
t1/2 (dissociation half-life time) [6]: 19.7 h
